According to the supplement of paper PMC6757056:
± gives the standard deviation of the averaged measurements.

B1: library; a variant is named by its letters at N, in order (parent)
chain: GCUGUCACCGGUGUAUUACCCUAGUGGUCGACCGGUCUGAUGAGUCUNNNNNNAGACGAAACAGC

Experiments:
hypoxanthine [1] = variants of: B1; experiment: FACS-Seq fitted mean relative fluorescence mCherry/BFP without ligand (log10 relative fluorescence); ligand: hypoxanthine (xanthine aptamer); higher = higher reporter protein expression; settings: HEK293T, ligand present: no
In short: (§1)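 HEK293T libraries were lentivirally transduced with an mCherry reporter carrying the ribozyme switch and an EF1α-BFP marker, enriched, and incubated for 48 h with or without ligand before sorting into 6 bins by mCherry/BFP. Genomic DNA from each bin was PCR-amplified, barcoded and sequenced on MiSeq. Fluorescence is the fitted normal mean of the bin counts. The fit used log10(mCherry/BFP), and means were scaled to five spiked-in control ribozymes.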

hypoxanthine [2] = variants of: B1; experiment: normalized RNA/DNA level with ligand (relative to sTRSVctl = 100) (log10 (% of sTRSVctl)); ligand: hypoxanthine (xanthine aptamer); higher = less ribozyme self-cleavage, higher mRNA level; settings: ligand concentration (+) RNA-Seq: 5 mM, HEK293T, reporter: mCherry (pCS4076), ligand present: yes
In short: (§2)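 Library plasmids encoding reporter-linked ribozyme switches (mCherry, or eGFP for some folinic acid experiments) were transfected into HEK293T at 4 µg per 6-well well. Ligand, when used, was added 1 h before transfection. Total RNA was extracted with EDTA 72 h later, then reverse-transcribed, amplified, barcoded and sequenced. RNA level was RNA reads over DNA reads, divided by a spiked-in non-cleaving control (or the top 25 sequences), ×100, log10; only sequences with ≥100 DNA reads were kept.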

hypoxanthine [3] = variants of: B1; experiment: normalized RNA/DNA level without ligand (relative to sTRSVctl = 100) (log10 (% of sTRSVctl)); ligand: hypoxanthine (xanthine aptamer); higher = less ribozyme self-cleavage, higher mRNA level; settings: HEK293T, reporter: mCherry (pCS4076), ligand present: no
In short: as §2

hypoxanthine [4] = variants of: B1; experiment: FACS-Seq fitted mean relative fluorescence mCherry/BFP with ligand (log10 relative fluorescence); ligand: hypoxanthine (xanthine aptamer); ligand concentration (+) FACS-Seq: 5 mM; higher = higher reporter protein expression; settings: HEK293T, ligand present: yes
In short: as §1

Row | Variant | FACS-Seq fitted mean (log10) (hypoxanthine [1]) | normalized RNA/DNA level with ligand (log10) (hypoxanthine [2]) | normalized RNA/DNA level without ligand (log10) (hypoxanthine [3]) | FACS-Seq fitted mean (log10) (hypoxanthine [4])
1 | GUUUUU | 0.142 ± 0.041 | 1.941 ± 0.0034 | 1.93 ± 0.05 | 0.1 ± 0.015
2 | UCCCAG | 0.261 ± 0.0092 | 1.84 ± 0.0087 | 1.35 ± 0.023 | 0.506 ± 0.016
3 | GCACUA | 0.503 ± 0.091 | 1.939 ± 0.0064 | 1.81 ± 0.027 | 0.489 ± 0.08
4 | UCAGUA | 0.09 ± 0.0096 | 1.92 ± 0.069 | 1.797 ± 0.013 | 0.386 ± 0.036
5 | GAUAGG | -0.0874 ± 0.036 | 1.737 ± 0.017 | 1.27 ± 0.04 | 0.506 ± 0.068
6 | ACUCAU | 0.604 ± 0.014 | 1.95 ± 0.042 | 1.84 ± 0.026 | 0.7156 ± 0.0036
7 | ACUCGG | 0.949 ± 0.075 | 1.87 ± 0.042 | 1.44 ± 0.12 | 0.651 ± 0.2
8 | AAUGUU | 0.678 ± 0.033 | 1.9 ± 0.072 | 1.85 ± 0.038 | 0.605 ± 0.077
9 | GAGACG | 0.287 ± 0.0096 | 1.749 ± 0.015 | 1.25 ± 0.055 | 0.807 ± 0.067
10 | UAACGA | 0.432 ± 0.054 | 1.91 ± 0.033 | 1.6909 ± 0.0004 | 0.324 ± 0.072
11 | UAACCG | 0.631 ± 0.023 | 1.95 ± 0.04 | 1.68 ± 0.033 | 0.756 ± 0.013
12 | GAACAU | 0.466 ± 0.11 | 1.907 ± 0.00016 | 1.766 ± 0.01 | 0.349 ± 0.12
13 | ACAUGU | 0.399 ± 0.057 | 1.91 ± 0.052 | 1.65 ± 0.061 | 0.567 ± 0.024
14 | GUAUGG | 0.0518 ± 0.044 | 1.783 ± 0.01 | 1.331 ± 0.013 | 0.63 ± 0.026
15 | AUUUGC | 0.485 ± 0.047 | 1.91 ± 0.043 | 1.783 ± 0.0061 | 0.704 ± 0.052
16 | UCGAUC | 0.537 ± 0.11 | 1.98 ± 0.033 | 1.96 ± 0.031 | 0.59 ± 0.045
17 | GCGAAA | 0.172 ± 0.045 | 1.878 ± 0.0072 | 1.49 ± 0.019 | 0.404 ± 0.021
18 | GGCGCA | 0.59 ± 0.026 | 1.977 ± 0.0052 | 1.893 ± 0.0039 | 0.6023 ± 0.0039
19 | CUGGGG | 0.345 ± 0.011 | 1.86 ± 0.05 | 1.479 ± 0.0059 | 0.484 ± 0.061
20 | AACGUC | 0.221 ± 0.029 | 2.01 ± 0.052 | 1.949 ± 0.0078 | 0.255 ± 0.0059
21 | UAAGAA | 0.349 ± 0.3 | 1.91 ± 0.025 | 1.68 ± 0.011 | 0.395 ± 0.051
22 | GGGGGU | 0.334 ± 0.062 | 1.935 ± 0.0072 | 1.86 ± 0.02 | 0.316 ± 0.064
23 | AUCAAG | 0.0695 ± 0.06 | 1.85 ± 0.043 | 1.5 ± 0.06 | 0.339 ± 0.047
24 | AGGCAG | 0.337 ± 0.023 | 1.82 ± 0.037 | 1.45 ± 0.0028 | 0.534 ± 0.015

Row | Variant | FACS-Seq fitted mean (log10) (hypoxanthine [1]) | normalized RNA/DNA level with ligand (log10) (hypoxanthine [2]) | normalized RNA/DNA level without ligand (log10) (hypoxanthine [3]) | FACS-Seq fitted mean (log10) (hypoxanthine [4])
25 | CGGGGC | 0.7 ± 0.032 | 1.95 ± 0.021 | 1.896 ± 0.017 | 0.628 ± 0.0078
26 | UCACAU | -0.364 ± 0.044 | 1.93 ± 0.051 | 1.8 ± 0.021 | 0.26 ± 0.027
27 | UUACAC | 0.362 ± 0.025 | 1.92 ± 0.079 | 1.81 ± 0.025 | 0.444 ± 0.051
28 | UUAAUA | 0.528 ± 0.021 | 1.9466 ± 0.0017 | 1.79 ± 0.029 | 0.658 ± 0.014
29 | UAGAGA | -0.0593 ± 0.041 | 1.9 ± 0.051 | 1.39 ± 0.036 | 0.431 ± 0.029
30 | CUGCGC | 0.135 ± 0.0047 | 2 ± 0.033 | 1.92 ± 0.08 | 0.18 ± 0.029
31 | GCUGGC | 0.495 ± 0.075 | 1.85 ± 0.12 | 1.78 ± 0.038 | 0.468 ± 0.018
32 | GACGAA | 0.408 ± 0.047 | 1.9 ± 0.056 | 1.7 ± 0.0095 | 0.566 ± 0.012
33 | CUUUAU | 0.0718 ± 0.034 | 1.88 ± 0.098 | 1.78 ± 0.028 | 0.344 ± 0.07
34 | AAAGCG | 0.0919 ± 0.015 | 1.82 ± 0.026 | 1.32 ± 0.086 | 0.539 ± 0.023
35 | GGUGUG | -0.123 ± 0.13 | 1.783 ± 0.013 | 1.29 ± 0.051 | 0.24 ± 0.004
36 | GAUUCG | -0.06 ± 0.056 | 1.906 ± 0.0054 | 1.54 ± 0.021 | 0.357 ± 0.021
37 | UCCAAG | 0.264 ± 0.033 | 1.897 ± 0.015 | 1.54 ± 0.036 | 0.457 ± 0.044
38 | GGACUG | 0.544 ± 0.086 | 1.888 ± 0.012 | 1.58 ± 0.041 | 0.601 ± 0.1
39 | AACACA | 0.00339 ± 0.015 | 1.9 ± 0.055 | 1.83 ± 0.023 | -0.0536 ± 0.037
40 | UCCUGC | 0.86 ± 0.054 | 2.01 ± 0.056 | 1.919 ± 0.018 | 0.812 ± 0.091
41 | GGUCCA | 0.354 ± 0.029 | 1.96 ± 0.023 | 1.94 ± 0.056 | 0.465 ± 0.041
42 | GACCUG | 0.408 ± 0.074 | 1.887 ± 0.0022 | 1.52 ± 0.018 | 0.608 ± 0.095
43 | AAACCU | 0.484 ± 0.082 | 1.94 ± 0.033 | 1.87 ± 0.02 | 0.2749 ± 0.00055
44 | AGAUAA | 0.265 ± 0.036 | 1.88 ± 0.022 | 1.75 ± 0.042 | -0.0706 ± 0.047
45 | GAAAGG | 0.141 ± 0.013 | 1.74 ± 0.029 | 1.2 ± 0.07 | 0.614 ± 0.017
46 | AAAGGU | 0.195 ± 0.021 | 1.9 ± 0.054 | 1.61 ± 0.053 | 0.526 ± 0.025
47 | CGGACA | 0.518 ± 0.098 | 1.9 ± 0.068 | 1.66 ± 0.037 | 0.612 ± 0.016
48 | AGAUUC | 0.691 ± 0.017 | 1.92 ± 0.051 | 1.92 ± 0.037 | 0.707 ± 0.069

Row | Variant | FACS-Seq fitted mean (log10) (hypoxanthine [1]) | normalized RNA/DNA level with ligand (log10) (hypoxanthine [2]) | normalized RNA/DNA level without ligand (log10) (hypoxanthine [3]) | FACS-Seq fitted mean (log10) (hypoxanthine [4])
49 | AGCAUG | 0.201 ± 0.012 | 1.87 ± 0.079 | 1.4892 ± 0.001 | -0.275 ± 0.19
50 | UAUUAC | 0.513 ± 0.025 | 1.9 ± 0.054 | 1.823 ± 0.018 | 0.512 ± 0.011
51 | AGCUGC | 0.448 ± 0.0077 | 2 ± 0.035 | 1.87 ± 0.076 | 0.755 ± 0.036
52 | ACCAGU | -0.346 ± 0.35 | 1.907 ± 0.0063 | 1.8 ± 0.064 | -0.721 ± 0.15
53 | AAAUUA | -0.311 ± 0.019 | 1.899 ± 0.016 | 1.83 ± 0.055 | -0.0839 ± 0.038
54 | GUUCAA | 0.0385 ± 0.025 | 1.89 ± 0.075 | 1.79 ± 0.042 | 0.294 ± 0.0042
55 | UUUUCC | -0.155 ± 0.032 | 1.94 ± 0.03 | 1.935 ± 0.013 | 0.362 ± 0.077
56 | GAGAUC | 0.247 ± 0.015 | 1.94 ± 0.021 | 1.83 ± 0.053 | 0.211 ± 0.004
57 | ACGUUG | -0.189 ± 0.0052 | 1.79 ± 0.033 | 1.28 ± 0.019 | 0.488 ± 0.021
58 | AUUGAC | 0.697 ± 0.08 | 1.914 ± 0.01 | 1.816 ± 0.0025 | 0.672 ± 0.11
59 | GUCCGG | 0.2204 ± 0.002 | 1.9355 ± 0.0013 | 1.64 ± 0.081 | 0.524 ± 0.11
60 | UUACGU | 0.582 ± 0.017 | 1.95 ± 0.075 | 1.83 ± 0.025 | 0.566 ± 0.013
61 | UCACUG | 0.184 ± 0.08 | 1.89 ± 0.041 | 1.55 ± 0.012 | 0.463 ± 0.081
62 | AACAGU | -0.0447 ± 0.045 | 1.87 ± 0.047 | 1.54 ± 0.018 | 0.4214 ± 0.0042
63 | AGAGUA | 0.5286 ± 0.0017 | 1.892 ± 0.0036 | 1.7 ± 0.034 | 0.675 ± 0.034
64 | UUUGUG | 0.449 ± 0.0072 | 1.954 ± 0.015 | 1.76 ± 0.031 | 0.537 ± 0.024
65 | UAGGAA | 0.348 ± 0.033 | 1.88 ± 0.031 | 1.64 ± 0.018 | 0.483 ± 0.056
66 | AUCCAA | 0.618 ± 0.059 | 1.923 ± 0.016 | 1.79 ± 0.07 | 0.708 ± 0.06
67 | AUCCAG | 0.222 ± 0.062 | 1.92 ± 0.034 | 1.55 ± 0.096 | 0.446 ± 0.052
68 | AGCGGG | 0.579 ± 0.16 | 1.9573 ± 0.00092 | 1.754 ± 0.0053 | 0.732 ± 0.094
69 | CGGAGU | 0.289 ± 0.057 | 1.91 ± 0.024 | 1.78 ± 0.074 | 0.556 ± 0.041
70 | CUGCAG | 0.429 ± 0.068 | 1.96 ± 0.02 | 1.73 ± 0.066 | 0.677 ± 0.016
71 | AUUGGU | 0.357 ± 0.04 | 1.89 ± 0.048 | 1.66 ± 0.084 | 0.601 ± 0.029
72 | AGGAGG | 0.0646 ± 0.011 | 1.584 ± 0.0034 | 1.186 ± 0.0034 | 0.626 ± 0.055
